B1: mCherry: control mCherry mRNA (SEQ ID NO: 410, Cap1) fully modified with 5-methylcytosine and pseudouridine (nucleic acid)
chain: GGGAAAUAAGAGAGAAAAGAAGAGUAAGAAGAAAUAUAAGAGCCACCAUGGUAUCCAAGGGGGAGGAGGACAACAUGGCGAUCAUCAAGGAGUUCAUGCGAUUCAAGGUGCACAUGGAAGGUUCGGUCAACGGACACGAAUUUGAAAUCGAAGGAGAGGGUGAAGGAAGGCCCUAUGAAGGGACACAGACCGCGAAACUCAAGGUCACGAAAGGGGGACCACUUCCUUUCGCCUGGGACAUUCUUUCGCCCCAGUUUAUGUACGGGUCCAAAGCAUAUGUGAAGCAUCCCGCCGAUAUUCCUGACUAUCUGAAACUCAGCUUUCCCGAGGGAUUCAAGUGGGAGCGGGUCAUGAACUUUGAGGACGGGGGUGUAGUCACCGUAACCCAAGACUCAAGCCUCCAAGACGGCGAGUUCAUCUACAAGGUCAAACUGCGGGGGACUAACUUUCCGUCGGAUGGGCCGGUGAUGCAGAAGAAAACGAUGGGAUGGGAAGCGUCAUCGGAGAGGAUGUACCCAGAAGAUGGUGCAUUGAAGGGGGAGAUCAAGCAGAGACUGAAGUUGAAAGAUGGGGGACAUUAUGAUGCCGAGGUGAAAACGACAUACAAAGCGAAAAAGCCGGUGCAGCUUCCCGGAGCGUAUAAUGUGAAUAUCAAGUUGGAUAUUACUUCACACAAUGAGGACUACACAAUUGUCGAACAGUACGAACGCGCUGAGGGUAGACACUCGACGGGAGGCAUGGACGAGUUGUACAAAUGAUAAGCUGCCUUCUGCGGGGCUUGCCUUCUGGCCAUGCCCUUCUUCUCUCCCUUGCACCUGUACCUCUUGGUCUUUGAAUAAAGCCUGAGUAGGAAG
modifications: Cap1; 5mC/pseudoU modified; Description of Artificial Sequence: Synthetic Transcript Sequence
B2: 100% modification: G-CSF mRNA (SEQ ID NO: 408, Cap1) completely modified with 5mC and pseudoU (nucleic acid)
chain: GGGAAAUAAGAGAGAAAAGAAGAGUAAGAAGAAAUAUAAGAGCCACCAUGGCCGGUCCCGCGACCCAAAGCCCCAUGAAACUUAUGGCCCUGCAGUUGCUGCUUUGGCACUCGGCCCUCUGGACAGUCCAAGAAGCGACUCCUCUCGGACCUGCCUCAUCGUUGCCGCAGUCAUUCCUUUUGAAGUGUCUGGAGCAGGUGCGAAAGAUUCAGGGCGAUGGAGCCGCACUCCAAGAGAAGCUCUGCGCGACAUACAAACUUUGCCAUCCCGAGGAGCUCGUACUGCUCGGGCACAGCUUGGGGAUUCCCUGGGCUCCUCUCUCGUCCUGUCCGUCGCAGGCUUUGCAGUUGGCAGGGUGCCUUUCCCAGCUCCACUCCGGUUUGUUCUUGUAUCAGGGACUGCUGCAAGCCCUUGAGGGAAUCUCGCCAGAAUUGGGCCCGACGCUGGACACGUUGCAGCUCGACGUGGCGGAUUUCGCAACAACCAUCUGGCAGCAGAUGGAGGAACUGGGGAUGGCACCCGCGCUGCAGCCCACGCAGGGGGCAAUGCCGGCCUUUGCGUCCGCGUUUCAGCGCAGGGCGGGUGGAGUCCUCGUAGCGAGCCACCUUCAAUCAUUUUUGGAAGUCUCGUACCGGGUGCUGAGACAUCUUGCGCAGCCGUGAAGCGCUGCCUUCUGCGGGGCUUGCCUUCUGGCCAUGCCCUUCUUCUCUCCCUUGCACCUGUACCUCUUGGUCUUUGAAUAAAGCCUGAGUAGGAAG
modifications: Cap1; full 5mC and pseudoU modification; Description of Artificial Sequence: Synthetic Transcript Sequence
B3: 50% modification: G-CSF mRNA (SEQ ID NO: 408) partially modified with 5mC and pseudoU, 50% modification (nucleic acid)
chain: B2 chain
modifications: 50% 5mC/pseudoU modified; Description of Artificial Sequence: Synthetic Transcript Sequence
B4: 0% modification: unmodified G-CSF mRNA (SEQ ID NO: 408), not modified with 5mC and pseudoU (nucleic acid)
chain: B2 chain
modifications: Description of Artificial Sequence: Synthetic Transcript Sequence
B5: 75% modification: G-CSF mRNA (SEQ ID NO: 408) partially modified with 5mC and pseudoU, 75% modification (nucleic acid)
chain: B2 chain
modifications: 75% 5mC/pseudoU modified; Description of Artificial Sequence: Synthetic Transcript Sequence

Experiments:
Format in all cases: cell-based, human
[1] = test system: peripheral blood mononuclear cells (PBMC); experiment: In vitro PBMC study, percent modification: G-CSF expression by ELISA; settings: for G-CSF Expression: 22 hours after transfection; for Average G-CSF: PBMC, average of three donors
Description: 480 ng of G-CSF mRNA modified with 5-methylcytosine (5mC) and pseudouridine (pseudoU) or unmodified G-CSF mRNA was transfected with 0.4 uL of Lipofectamine 2000 into peripheral blood mononuclear cells (PBMC) from three normal blood donors (D1, D2, and D3). […] The supernatant was harvested and run by ELISA 22 hours after transfection to determine the protein expression. The expression of IFN-alpha and TNF-alpha may be a secondary effect from the transfection of the G-CSF mRNA.

[2] = test system: peripheral blood mononuclear cells (PBMC); experiment: In vitro screening in PBMC: G-CSF protein expression by ELISA
Text: (§1) The supernatant was harvested and stored frozen until analyzed by ELISA to determine the G-CSF protein expression, and the induction of the cytokines interferon-alpha (IFN-α) and tumor necrosis factor alpha (TNF-α).

[3] = test system: interferon-alpha (IFN-α); experiment: In vitro screening in PBMC: interferon-alpha induction by ELISA
Text: as §1

[4] = test system: tumor necrosis factor alpha (TNF-α); experiment: In vitro screening in PBMC: tumor necrosis factor alpha induction by ELISA
Text: as §1

[5] = test system: IFN-alpha; experiment: In vitro PBMC study, percent modification: IFN-alpha expression by ELISA; settings: for Average IFN-a: average of three donors; for G-CSF/IFN-alpha (PC ratio): protein/cytokine ratio from averages
Description: (§2) The supernatant was harvested and run by ELISA 22 hours after transfection to determine the protein expression.

[6] = test system: TNF-alpha; experiment: In vitro PBMC study, percent modification: TNF-alpha expression by ELISA; settings: for Average TNF-a: average of three donors; for G-CSF/TNF-alpha (PC ratio): protein/cytokine ratio from averages
Description: as §2

[7] = PBMC Donor 1, 500 ng G-CSF mRNA
[8] = PBMC Donor 2, 500 ng G-CSF mRNA
[9] = PBMC Donor 3, 500 ng G-CSF mRNA
[10] = PBMC donor D1, 22 hours after transfection
[11] = PBMC donor D2, 22 hours after transfection
[12] = PBMC donor D3, 22 hours after transfection
[13] = PBMC, versus natural G-CSF mRNA

Row | Molecule | G-CSF Expression ([1]; PBMC donor D1, 480 ng mRNA) | G-CSF Expression ([1]; PBMC donor D2, 480 ng mRNA) | G-CSF Expression ([1]; PBMC donor D3, 480 ng mRNA) | Average G-CSF [1] | IFN-alpha Expression [5, 10] | IFN-alpha Expression [5, 11] | IFN-alpha Expression [5, 12] | Average IFN-a ([5]; PBMC) | G-CSF/IFN-alpha (PC ratio) ([5]; PBMC) | TNF-alpha Expression [6, 10] | TNF-alpha Expression [6, 11] | TNF-alpha Expression [6, 12] | Average TNF-a ([6]; PBMC) | G-CSF/TNF-alpha (PC ratio) ([6]; PBMC) | other results
1 | Luciferase: control Luciferase mRNA (SEQ ID NO: 409, Cap1) fully modified 5meC and pseudoU [reference compound] | 90.2 pg/mL | 0.0 pg/mL | 22.1 pg/mL | – | – | – | – | – | – | – | – | – | – | – | –
2 | B1 | – | – | – | – | – | – | – | – | – | – | – | – | – | – | G-CSF Protein Expression [2, 7]: 5 pg/mL; G-CSF Protein Expression [2, 8]: 168 pg/mL; G-CSF Protein Expression [2, 9]: 164 pg/mL; IFN-α Expression [3, 7]: 100 pg/mL; IFN-α Expression [3, 8]: 75 pg/mL; IFN-α Expression [3, 9]: 143 pg/mL; TNF-α Expression [4, 7]: 67 pg/mL; TNF-α Expression [4, 8]: 100 pg/mL; TNF-α Expression [4, 9]: 133 pg/mL
3 | B2 | 1968.9 pg/mL | 2595.6 pg/mL | 2835.7 pg/mL | 2466 pg/mL | 336.5 pg/mL | 78.0 pg/mL | 46.4 pg/mL | 153 pg/mL | 16 | 115.0 pg/mL | 15.0 pg/mL | 11.1 pg/mL | 47 pg/mL | 52 | better ratio of protein/cytokine production than without any modification, IFN-alpha [5, 13]: 100 fold; better ratio of protein/cytokine production than without any modification, TNF-alpha [6, 13]: 27 fold
4 | B3 | 188.9 pg/mL | 187.2 pg/mL | 191.9 pg/mL | 189 pg/mL | 478.9 pg/mL | 261.1 pg/mL | 389.7 pg/mL | 376 pg/mL | 0.5 | 49.6 pg/mL | 24.1 pg/mL | 10.4 pg/mL | 28 pg/mL | 6.8 | –
5 | B4 | 194.8 pg/mL | 182.0 pg/mL | 183.3 pg/mL | 186 pg/mL | 1421.6 pg/mL | 810.5 pg/mL | 1260.5 pg/mL | 1164 pg/mL | 0.16 | 154.6 pg/mL | 96.8 pg/mL | 45.9 pg/mL | 99 pg/mL | 1.9 | –
6 | B5 | 566.7 pg/mL | 631.4 pg/mL | 659.5 pg/mL | 619 pg/mL | 339.6 pg/mL | 107.6 pg/mL | 160.9 pg/mL | 202 pg/mL | 3.1 | 107.4 pg/mL | 21.7 pg/mL | 11.8 pg/mL | 47 pg/mL | 13 | –
